Laboratory results published in article PMC6753376 (Molecular Systems Biology, 2019).

Assays:
[1] = molecular target: C3b (human) (UniProt P01024); test: cross-linking; quantitative cross-linking mass spectrometry (QCLMS) of C3b alone; C3b monomer and dimer labelled as in Chen et al, 2016c, in-gel digested with trypsin, then sequential digestion
[2] = molecular target: T1, Mcm6 (S. cerevisiae, UniProt P53091 1-1017); test: cross-linking; BS3 cross-linking of 200 ug OCCM complex on pUC19-ARS1 beads, 1:8,100 protein to crosslinker molar ratio, 2 h on ice; sequential digestion, SEC, LC-MS/MS, xiSEARCH, 5% FDR; conditions: both partners purified
T1 construct: Mcm6, S. cerevisiae, subunit of MCM2-7 in the OCCM complex; source: in the OCCM complex assembled on pUC19-ARS1 beads as described elsewhere (Evrin et al, 2009)

[3] = molecular target: T2, Mcm2 (S. cerevisiae, UniProt P29469 1-868); test: as above; conditions: both partners purified
T2 construct: Mcm2, S. cerevisiae, subunit of MCM2-7 in the OCCM complex; the search database held all 14 OCCM subunits; source: in the OCCM complex assembled on pUC19-ARS1 beads as described elsewhere (Evrin et al, 2009)
T2 sequence (looked up): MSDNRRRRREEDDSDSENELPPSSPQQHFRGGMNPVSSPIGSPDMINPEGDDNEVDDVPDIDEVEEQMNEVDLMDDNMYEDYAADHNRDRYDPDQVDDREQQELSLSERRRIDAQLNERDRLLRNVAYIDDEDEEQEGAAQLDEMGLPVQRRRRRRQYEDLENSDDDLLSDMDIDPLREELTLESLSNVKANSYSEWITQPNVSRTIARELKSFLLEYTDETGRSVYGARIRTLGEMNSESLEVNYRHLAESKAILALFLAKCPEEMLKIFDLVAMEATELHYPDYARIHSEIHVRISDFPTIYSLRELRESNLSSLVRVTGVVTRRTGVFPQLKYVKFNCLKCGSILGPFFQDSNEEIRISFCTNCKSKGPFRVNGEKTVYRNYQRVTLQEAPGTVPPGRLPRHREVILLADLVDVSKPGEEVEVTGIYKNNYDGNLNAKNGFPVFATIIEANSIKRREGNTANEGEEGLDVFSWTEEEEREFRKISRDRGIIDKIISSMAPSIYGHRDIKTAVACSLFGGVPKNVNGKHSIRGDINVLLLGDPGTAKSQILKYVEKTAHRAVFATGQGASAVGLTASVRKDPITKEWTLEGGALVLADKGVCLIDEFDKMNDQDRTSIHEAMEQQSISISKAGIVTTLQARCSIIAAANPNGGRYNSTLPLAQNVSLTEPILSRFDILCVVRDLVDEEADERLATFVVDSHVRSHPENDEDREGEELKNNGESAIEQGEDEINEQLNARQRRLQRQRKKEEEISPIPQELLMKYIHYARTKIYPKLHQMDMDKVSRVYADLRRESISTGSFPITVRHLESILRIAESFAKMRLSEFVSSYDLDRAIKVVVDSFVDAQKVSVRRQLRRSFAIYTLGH

T1 sequence (P53091 whole entry): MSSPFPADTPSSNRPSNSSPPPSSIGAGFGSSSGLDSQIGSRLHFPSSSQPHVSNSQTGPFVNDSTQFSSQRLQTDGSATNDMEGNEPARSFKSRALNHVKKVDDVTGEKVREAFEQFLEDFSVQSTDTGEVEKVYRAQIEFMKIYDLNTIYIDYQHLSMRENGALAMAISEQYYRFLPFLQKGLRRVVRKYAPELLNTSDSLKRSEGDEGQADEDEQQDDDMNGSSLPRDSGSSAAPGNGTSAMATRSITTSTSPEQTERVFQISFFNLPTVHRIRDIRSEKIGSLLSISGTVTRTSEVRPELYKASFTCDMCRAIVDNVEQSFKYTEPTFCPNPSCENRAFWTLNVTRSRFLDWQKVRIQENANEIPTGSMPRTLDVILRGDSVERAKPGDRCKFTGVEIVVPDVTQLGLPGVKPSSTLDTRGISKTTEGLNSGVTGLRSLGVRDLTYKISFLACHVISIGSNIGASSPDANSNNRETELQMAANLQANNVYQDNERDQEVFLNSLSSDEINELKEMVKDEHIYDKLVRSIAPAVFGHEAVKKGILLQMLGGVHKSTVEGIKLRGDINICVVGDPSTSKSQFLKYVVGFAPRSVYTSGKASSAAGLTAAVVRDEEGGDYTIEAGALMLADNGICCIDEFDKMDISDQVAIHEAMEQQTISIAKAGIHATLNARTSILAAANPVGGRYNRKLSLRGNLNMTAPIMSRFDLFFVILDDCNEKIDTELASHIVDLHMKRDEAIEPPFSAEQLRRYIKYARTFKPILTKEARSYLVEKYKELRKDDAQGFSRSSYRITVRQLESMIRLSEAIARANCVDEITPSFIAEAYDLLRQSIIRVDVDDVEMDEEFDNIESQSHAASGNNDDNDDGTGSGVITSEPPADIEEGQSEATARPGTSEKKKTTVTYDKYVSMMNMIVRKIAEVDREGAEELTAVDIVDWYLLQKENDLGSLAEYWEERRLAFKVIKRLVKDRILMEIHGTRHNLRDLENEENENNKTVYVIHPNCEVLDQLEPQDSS
Chain of C3b (P01024 23-1663): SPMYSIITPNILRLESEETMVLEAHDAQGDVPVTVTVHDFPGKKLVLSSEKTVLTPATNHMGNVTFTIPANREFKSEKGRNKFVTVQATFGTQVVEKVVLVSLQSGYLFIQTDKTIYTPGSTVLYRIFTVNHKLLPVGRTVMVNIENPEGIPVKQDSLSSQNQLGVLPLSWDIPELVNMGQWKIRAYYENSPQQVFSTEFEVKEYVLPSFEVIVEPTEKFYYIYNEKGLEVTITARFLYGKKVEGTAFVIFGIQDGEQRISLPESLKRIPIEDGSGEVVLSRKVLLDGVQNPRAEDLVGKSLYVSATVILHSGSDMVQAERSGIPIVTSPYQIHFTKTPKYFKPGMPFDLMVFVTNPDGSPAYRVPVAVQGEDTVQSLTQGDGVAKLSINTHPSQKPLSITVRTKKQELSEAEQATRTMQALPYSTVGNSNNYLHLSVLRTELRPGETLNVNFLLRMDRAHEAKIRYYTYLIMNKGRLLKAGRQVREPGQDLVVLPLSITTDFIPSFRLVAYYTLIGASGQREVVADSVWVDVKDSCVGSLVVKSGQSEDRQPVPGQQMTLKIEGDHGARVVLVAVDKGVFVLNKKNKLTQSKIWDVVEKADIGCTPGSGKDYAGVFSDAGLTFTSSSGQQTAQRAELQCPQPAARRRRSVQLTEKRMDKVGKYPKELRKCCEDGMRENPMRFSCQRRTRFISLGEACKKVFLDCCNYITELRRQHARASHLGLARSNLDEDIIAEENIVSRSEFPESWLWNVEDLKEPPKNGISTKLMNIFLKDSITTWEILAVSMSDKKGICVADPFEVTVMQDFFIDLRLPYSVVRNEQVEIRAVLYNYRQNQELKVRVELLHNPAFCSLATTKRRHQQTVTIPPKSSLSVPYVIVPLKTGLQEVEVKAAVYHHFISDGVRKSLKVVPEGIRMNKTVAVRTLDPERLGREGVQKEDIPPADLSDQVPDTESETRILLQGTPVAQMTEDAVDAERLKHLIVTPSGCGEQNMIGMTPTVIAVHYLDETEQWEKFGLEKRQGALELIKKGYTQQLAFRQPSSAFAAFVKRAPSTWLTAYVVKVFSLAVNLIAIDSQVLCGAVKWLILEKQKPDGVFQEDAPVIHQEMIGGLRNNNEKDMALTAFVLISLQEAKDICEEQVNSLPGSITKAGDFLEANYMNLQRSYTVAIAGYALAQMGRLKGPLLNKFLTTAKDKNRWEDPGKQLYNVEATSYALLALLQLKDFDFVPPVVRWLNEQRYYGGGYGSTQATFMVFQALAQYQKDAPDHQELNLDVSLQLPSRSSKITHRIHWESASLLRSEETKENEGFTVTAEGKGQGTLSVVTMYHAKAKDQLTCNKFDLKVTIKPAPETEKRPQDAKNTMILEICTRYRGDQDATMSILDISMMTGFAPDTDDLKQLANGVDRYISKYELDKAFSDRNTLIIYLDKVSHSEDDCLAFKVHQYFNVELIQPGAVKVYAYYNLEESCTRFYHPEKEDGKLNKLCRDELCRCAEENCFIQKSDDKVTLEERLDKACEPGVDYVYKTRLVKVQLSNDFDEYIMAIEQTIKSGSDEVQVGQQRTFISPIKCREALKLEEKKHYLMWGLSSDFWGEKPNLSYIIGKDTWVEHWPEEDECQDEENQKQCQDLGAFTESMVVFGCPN

Row | Molecule | binding result [3] | further results
1 | C3b (from UniProt P01024 749-1663; P01024 749-1663) (natural protein) |  | stoichiometry N [1]: 2
2 | Cdt1 (natural protein, S. cerevisiae, UniProt P47112 1-604, looked up, Cdt1, S. cerevisiae, subunit of the OCCM complex; source: in the OCCM complex assembled on pUC19-ARS1 beads as described elsewhere (Evrin et al, 2009)) MSGTANSRRKEVLRVPVIDLNRVSDEEQLLPVVRAILLQHDTFLLKNYANKAVLDALLAGLTTKDLPDTSQGFDANFTGTLPLEDDVWLEQYIFDTDPQLRFDRKCRNESLCSIYSRLFKLGLFFAQLCVKSVVSSAELQDCISTSHYATKLTRYFNDNGSTHDGADAGATVLPTGDDFQYLFERDYVTFLPTGVLTIFPCAKAIRYKPSTMATTDNSWVSIDEPDCLLFHTGTLLARWSQGMHTTSPLQIDPRANIVSLTIWPPLTTPISSKGEGTIANHLLEQQIKAFPKVAQQYYPRELSILRLQDAMKFVKELFTVCETVLSLNALSRSTGVPPELHVLLPQISSMMKRKIVQDDILKLLTIWSDAYVVELNSRGELTMNLPKRDNLTTLTNKSRTLAFVERAESWYQQVIASKDEIMTDVPAFKINKRRSSSNSKTVLSSKVQTKSSNANALNNSRYLANSKENFMYKEKMPDSQANLMDRLRERERRSAALLSQRQKRYQQFLAMKMTQVFDILFSLTRGQPYTETYLSSLIVDSLQDSNNPIGTKEASEILAGLQGILPMDISVHQVDGGLKVYRWNSLDKNRFSKLLQIHKSKQQD |  | binding result [2]: binds
3 | Orc2 (natural protein, S. cerevisiae, UniProt P32833 1-620, looked up, Orc2, S. cerevisiae, subunit of ORC in the OCCM complex; source: in the OCCM complex assembled on pUC19-ARS1 beads as described elsewhere (Evrin et al, 2009)) MLNGEDFVEHNDILSSPAKSRNVTPKRVDPHGERQLRRIHSSKKNLLERISLVGNERKNTSPDPALKPKTPSKAPRKRGRPRKIQEELTDRIKKDEKDTISSKKKRKLDKDTSGNVNEESKTSNNKQVMEKTGIKEKREREKIQVATTTYEDNVTPQTDDNFVSNSPEPPEPATPSKKSLTTNHDFTSPLKQIIMNNLKEYKDSTSPGKLTLSRNFTPTPVPKNKKLYQTSETKSASSFLDTFEGYFDQRKIVRTNAKSRHTMSMAPDVTREEFSLVSNFFNENFQKRPRQKLFEIQKKMFPQYWFELTQGFSLLFYGVGSKRNFLEEFAIDYLSPKIAYSQLAYENELQQNKPVNSIPCLILNGYNPSCNYRDVFKEITDLLVPAELTRSETKYWGNHVILQIQKMIDFYKNQPLDIKLILVVHNLDGPSIRKNTFQTMLSFLSVIRQIAIVASTDHIYAPLLWDNMKAQNYNFVFHDISNFEPSTVESTFQDVMKMGKSDTSSGAEGAKYVLQSLTVNSKKMYKLLIETQMQNMGNLSANTGPKRGTQRTGVELKLFNHLCAADFIASNEIALRSMLREFIEHKMANITKNNSGMEIIWVPYTYAELEKLLKTVLNTL | binds | 
4 | Orc5 (natural protein, S. cerevisiae, UniProt P50874 1-479, looked up, Orc5, S. cerevisiae, subunit of ORC in the OCCM complex; source: in the OCCM complex assembled on pUC19-ARS1 beads as described elsewhere (Evrin et al, 2009)) MNVTTPEVAFREYQTNCLASYISADPDITPSNLILQGYSGTGKTYTLKKYFNANPNLHAVWLEPVELVSWKPLLQAIARTVQYKLKTLYPNIPTTDYDPLQVEEPFLLVKTLHNIFVQYESLQEKTCLFLILDGFDSLQDLDAALFNKYIKLNELLPKDSKINIKFIYTMLETSFLQRYSTHCIPTVMFPRYNVDEVSTILVMSRCGELMEDSCLRKRIIEEQITDCTDDQFQNVAANFIHLIVQAFHSYTGNDIFALNDLIDFKWPKYVSRITKENIFEPLALYKSAIKLFLSTDDNLSENGQGESAITTNRDDLENSQTYDLSIISKYLLIASYICSYLEPRYDASIFSRKTRIIQGRAAYGRRKKKEVNPRYLQPSLFAIERLLAIFQAIFPIQGKAESGSLSALREESLMKANIEVFQNLSELHTLKLIATTMNKNIDYLSPKVRWKVNVPWEIIKEISESVHFNISDYFSDIHE | binds | 
